Seven molecules from patent publication US20260234247A1 (published 2026) can be followed below.

In test [1] the target is T1, human LILRA1 (human, UniProt O75019 17-461, limits assumed).
T1 construct: bought protein coated for ELISA; also called hLILRA1
The experiment in a line: ELISA, OD450, antibody at 200 nM; + = 2-fold over ISO.
T1 sequence (O75019 17-461 limits assumed): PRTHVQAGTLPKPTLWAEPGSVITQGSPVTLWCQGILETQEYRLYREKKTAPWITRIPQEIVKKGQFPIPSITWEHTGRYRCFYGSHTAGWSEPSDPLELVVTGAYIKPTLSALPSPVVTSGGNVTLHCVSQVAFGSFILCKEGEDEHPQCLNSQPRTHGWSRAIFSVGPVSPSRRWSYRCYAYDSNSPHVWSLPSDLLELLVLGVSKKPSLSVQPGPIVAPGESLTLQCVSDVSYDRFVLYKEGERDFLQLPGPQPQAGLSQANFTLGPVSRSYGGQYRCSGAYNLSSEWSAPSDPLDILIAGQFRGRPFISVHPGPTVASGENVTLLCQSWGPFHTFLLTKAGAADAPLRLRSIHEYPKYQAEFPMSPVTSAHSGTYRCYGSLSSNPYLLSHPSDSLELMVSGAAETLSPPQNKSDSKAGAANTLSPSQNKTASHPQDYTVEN
Method: (§1) To further confirm binding affinity, selected clones were assayed in ELISA or FACS in a range of testing concentrations.

The next test addresses T2, human LILRA2 (human, UniProt Q8N149 24-449).
T2 construct: bought protein coated for ELISA; also called hLILRA2
Described as above.

A further test deals with T3, human LILRB3 (human, UniProt O75022 24-443).
T3 construct: bought protein coated for ELISA; also called hLILRB3
The description is as above.

A further test concerns the target T4, human LILRB5 (human, UniProt O75023 24-458).
T4 construct: bought protein coated for ELISA; also called hLILRB5
Described as above.

Test [2] deals with T5, human LILRA1 (human, UniProt O75019 17-461, limits assumed).
T5 construct: Bought protein; also called hLILRA1
The experiment in a line: ELISA, antibody at 200 nM, OD450; + = 2-fold over ISO.
T5 sequence (O75019 17-461 limits assumed): as above
Method: as §1

The target of another test is T6, human LILRA3 (human, UniProt Q8N6C8 24-439).
T6 construct: bought protein coated for ELISA; also called hLILRA3
Briefly: ELISA, OD450, antibody at 200 nM; + = 2-fold over ISO.

T2 sequence (Q8N149 24-449 limits assumed): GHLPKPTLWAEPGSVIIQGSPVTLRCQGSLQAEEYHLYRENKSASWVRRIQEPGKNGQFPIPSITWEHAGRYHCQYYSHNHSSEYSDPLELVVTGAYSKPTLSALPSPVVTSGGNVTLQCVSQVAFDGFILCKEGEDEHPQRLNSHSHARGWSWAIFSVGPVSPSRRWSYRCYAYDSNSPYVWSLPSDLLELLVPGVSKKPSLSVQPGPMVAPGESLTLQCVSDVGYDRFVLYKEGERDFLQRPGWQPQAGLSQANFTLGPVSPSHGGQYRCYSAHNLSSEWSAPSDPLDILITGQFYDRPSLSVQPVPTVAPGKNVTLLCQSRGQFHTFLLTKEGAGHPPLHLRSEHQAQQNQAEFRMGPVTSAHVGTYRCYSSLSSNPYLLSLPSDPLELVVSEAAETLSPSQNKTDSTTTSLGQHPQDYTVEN
T4 sequence (O75023 24-458 limits assumed): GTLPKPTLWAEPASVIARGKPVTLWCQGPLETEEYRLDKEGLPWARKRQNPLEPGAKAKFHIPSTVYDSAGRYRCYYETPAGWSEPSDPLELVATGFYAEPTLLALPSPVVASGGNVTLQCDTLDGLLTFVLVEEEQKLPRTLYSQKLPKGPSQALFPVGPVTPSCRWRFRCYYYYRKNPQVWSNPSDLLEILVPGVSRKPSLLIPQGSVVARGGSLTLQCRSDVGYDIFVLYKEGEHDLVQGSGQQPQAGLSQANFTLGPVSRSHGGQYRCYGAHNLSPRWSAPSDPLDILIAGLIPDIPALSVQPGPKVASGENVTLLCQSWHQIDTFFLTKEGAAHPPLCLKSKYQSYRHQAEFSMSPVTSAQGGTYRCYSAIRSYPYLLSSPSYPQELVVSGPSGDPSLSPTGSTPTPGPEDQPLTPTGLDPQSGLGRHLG
T6 sequence (Q8N6C8 24-439 limits assumed): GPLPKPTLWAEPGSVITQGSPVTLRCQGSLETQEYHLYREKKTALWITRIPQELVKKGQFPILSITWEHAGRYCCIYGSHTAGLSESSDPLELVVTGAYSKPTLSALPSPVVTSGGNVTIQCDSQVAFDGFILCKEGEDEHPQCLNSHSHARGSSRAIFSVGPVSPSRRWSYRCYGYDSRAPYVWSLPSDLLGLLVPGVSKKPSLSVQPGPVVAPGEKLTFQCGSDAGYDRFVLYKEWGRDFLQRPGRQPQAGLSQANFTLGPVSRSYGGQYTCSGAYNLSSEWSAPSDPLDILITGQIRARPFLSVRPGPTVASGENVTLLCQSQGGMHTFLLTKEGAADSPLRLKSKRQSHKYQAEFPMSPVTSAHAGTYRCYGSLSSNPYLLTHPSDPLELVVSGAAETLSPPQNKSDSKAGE
Method for human LILRA2: as §1
Method for human LILRA3: as §1
Method for human LILRB3: as §1
Method for human LILRB5: as §1

B1: LK-RB1-47 (antibody, human IgG4 S228P, kappa, V domains shown)
VH: QIQLVQSGPELKKPGETVKISCKASGYTFTTYGMSWVKQAPGKGLKWMGWINTYSGVPTYTDDFKGRFAFSVETSASTAYLQINNLKNEDTATYFCARRERDFYGNIFFPYWGQGSLVTVSA
VL: DIQMTQTTSSLSASLGDRVTISCRASQDISNYLNWYQQKPDGTVKLLIYYTSRIHSGVPSRFSGSGSGTDFSLTISNLDQEDIATYFCQQGHTLPWTFGGGTKVEIKR
notes: anti-LILRB1 clone from mouse hybridoma
Consider B1, for which the binding result with human LILRA1 [1] and in the test with human LILRA2 was “binds” in each case.

B2: LK-RB1-59 (antibody, human IgG4 S228P, kappa, V domains shown)
VH: QIQLVQSGPELKKPGETVKISCKASGYTFTTYGMSWVKQAPGKGLKWMGWINTYSGVPTYADDFKGRFAFSLETSASTAYLQINNLKNEDTATYFCARRRIYYGNKGYAMDYWGQGTSVTVSS
VL: DIQMTQSPASLSVSVGETVTITCRASENIYSNLVWYQQKQGKSPQLLVYTATNLADGVPSRFSGSGSGTQFSLKINSLQSEDFGSYYCQHFWGTPWTFGGGTKLEIKR
notes: as for B1
As to B2, the binding result in the test with human LILRA1 [1] and with human LILRA2 was “binds” in each case.

B3: LK-RB1-35 (antibody, human IgG4 S228P, kappa, V domains shown)
VH: DVQLQESGPGLEKPSQSLSLTCSVTGYSITRGYQWNWIRQFPGNKLEWMGYISYDGSNNYNPSLKNRISITRDASKNQFFLKLNSVTTEDTATYYCARRSYNSIDYWGQGTTLTVSS
VL: DIVLTQSPATLSVTPGDSVSLSCRASQSISSNLHWYQQKSHESPRLLIKYASQSISGIPSRFSGSGSGTDFTLSINSVETEDFGMYFCQQSNSWPLTFGAGTKLELKR
notes: as for B1
B3: the binding result in the test with human LILRB3 and in the test with human LILRB5 was “binds” each time.

B4: LK-RB1-36 (antibody, human IgG4 S228P, kappa, V domains shown)
VH: DVQLQESGPGLEKPSQSLSLTCSVTGYSITRGYQWNWIRQFPGNKLEWMGYISYDGSNNYNPSLKNRISIIRDTSKNQFFLKLNSVTTEDTATYYCARRSYNSIDYWGQGTTLTVSS
VL: DIVLTQSPATLSVTPGDSVSLSCRASQSISNNLHWYQQKSHESPRLLIKYASQSISGIPSRFSGSGSGTDFTLSINSVETEDFGMYFCQQSNSWPLTFGAGTKLELKR
notes: as for B1
Take B4: the binding result with human LILRB3 and with human LILRB5 was “binds” each time.

B5: LK-RB2-24 (antibody, human IgG4 S228P, kappa, V domains shown)
VH: QIQLVQSGPEVKKPGETVKISCKASGYTFTTYGMSWVKQAPGKGLKWMGWLNIYSGVPAYADDFKGRFAFSLESSASTAYLQINNLKNEDTATYFCARRENYDGYGMDYWGQGTSVTVSS
VL: DIVMTQSPATLSVTPGDRVSLSCRASQSISDYLHWYQQKSHESPRLLIKYASQSISGIPSRFSGSGSGSDFTLSINSVEPEDVGVYYCQNGHSFPYTFGGGTKLEIKR
On to B5, for which the binding result in the test with human LILRA1 [2] was “binds”.

B6: LK-RB1-33 (antibody, human IgG4 S228P, kappa, V domains shown)
VH: QIQLVQSGPELKKPGDTVKISCKASGYTFTSYGMNWVKQAPGEGLKWMGWINTYSGVPTYGDDFKGRFAFSLETSASTAYLQINNLENEDTATYFCARRGRDSVVGHFDVWGTGTTVTVSS
VL: DIVMTQSHKFMSTSVGDRVSITCKASQDVNTAVAWYQQKPGQSPKLLIYWASTRHTGVPDRFTGSGSGTDFTLTISSVQAEDLALYYCQQHYTIPFTFGSGTRLEIKR
notes: as for B1
In the case of B6, the binding result in the test with human LILRA2 is reported as “binds”.

B7: LK-RB1-4 (antibody, human IgG4 S228P, kappa, V domains shown)
VH: QVQLQQPGAELVKPGASVKLPCKTSGYTFTSYWMHWVKQRPGRGLEWIGRIDPHYSGTKYNEKFKNKATMTVDTPSSTAYMQLSSLTSEDSAVYYCARFDGDPYYFDYWGPGTTLTVSS
VL: DIVMTQSQKFMSTSVGDRVSVTCKASQNVGTNVAWYKQKAGQSPKAVIYSASYRYSGVPDRFTGSGSGTDFTLSISNVQSEDLAEYFCQQYNNNPFTFGSGTKLEIKR
notes: anti-LILRB1 antibody
For the molecule B7, in the test with human LILRA3, the binding result is given as “binds”.
